Columns and labels:
[1] = target: T1, human GUCY2C protein, full length, on cells (human, UniProt P25092 24-1073); test: FACS on HT55 tumor cells (endogenous GUCY2C), MFI
T1 construct: whole, on cells; also called endogenous tumor cells HT55
Protocol: (§1) Then a complete medium was added to stop the digestion, and the cells were blown into a single cell suspension. After counting, the cells were centrifuged, and the cell pellet was resuspended to 2×10⁶ cells/mL in an FACS buffer (PBS+2% fetal bovine serum), and added to a 96-well FACS reaction plate at 100 μL/well. The plate was centrifuged, and the supernatant was discarded. An antibody sample to be tested (diluted in a 3-fold gradient from a starting concentration of 100 nM) was added at 50 μL/well and uniformly mixed with the cells, and the mixture was incubated at 4° C. for 1 h. […] The results were tested and analyzed by FACS (FACS Canto™, purchased from BD) after the plate was centrifuged and washed 3 times with a PBS buffer and resuspended with 100 μL of PBS. Data analysis was performed by software (FlowJo) to obtain the mean fluorescence intensity (MFI) of the cells. Then, analysis was performed by software (GraphPad Prism8), data were fitted, and EC50 values were calculated.
The binding of the recombinant antibody to the endogenous tumor cell HT55 was detected in the same manner.

[2] = target: T1, human GUCY2C protein, full length, on …; test: FACS on 293T-hGUCY2C cells, MFI
Protocol: as §1, with “5-fold” for “3-fold”, “calculated. As shown in A-C in FIG. 14, PF1608-hIgG1 binds strongly to GUCY2C at the protein level, but weakly at the cellular level. The humanized antibodies of the present application are all capable of binding effectively to recombinant cells expressing human GUCY2C protein and substantially maintain the equivalent binding ability of the recombinant antibodies.” for “calculated.”

[3] = target: T1, human GUCY2C protein, full length, on …; test: FACS on HT55 tumor cells (endogenous GUCY2C), MFI; remark: listed apart in the source

T1 sequence (P25092 24-1073): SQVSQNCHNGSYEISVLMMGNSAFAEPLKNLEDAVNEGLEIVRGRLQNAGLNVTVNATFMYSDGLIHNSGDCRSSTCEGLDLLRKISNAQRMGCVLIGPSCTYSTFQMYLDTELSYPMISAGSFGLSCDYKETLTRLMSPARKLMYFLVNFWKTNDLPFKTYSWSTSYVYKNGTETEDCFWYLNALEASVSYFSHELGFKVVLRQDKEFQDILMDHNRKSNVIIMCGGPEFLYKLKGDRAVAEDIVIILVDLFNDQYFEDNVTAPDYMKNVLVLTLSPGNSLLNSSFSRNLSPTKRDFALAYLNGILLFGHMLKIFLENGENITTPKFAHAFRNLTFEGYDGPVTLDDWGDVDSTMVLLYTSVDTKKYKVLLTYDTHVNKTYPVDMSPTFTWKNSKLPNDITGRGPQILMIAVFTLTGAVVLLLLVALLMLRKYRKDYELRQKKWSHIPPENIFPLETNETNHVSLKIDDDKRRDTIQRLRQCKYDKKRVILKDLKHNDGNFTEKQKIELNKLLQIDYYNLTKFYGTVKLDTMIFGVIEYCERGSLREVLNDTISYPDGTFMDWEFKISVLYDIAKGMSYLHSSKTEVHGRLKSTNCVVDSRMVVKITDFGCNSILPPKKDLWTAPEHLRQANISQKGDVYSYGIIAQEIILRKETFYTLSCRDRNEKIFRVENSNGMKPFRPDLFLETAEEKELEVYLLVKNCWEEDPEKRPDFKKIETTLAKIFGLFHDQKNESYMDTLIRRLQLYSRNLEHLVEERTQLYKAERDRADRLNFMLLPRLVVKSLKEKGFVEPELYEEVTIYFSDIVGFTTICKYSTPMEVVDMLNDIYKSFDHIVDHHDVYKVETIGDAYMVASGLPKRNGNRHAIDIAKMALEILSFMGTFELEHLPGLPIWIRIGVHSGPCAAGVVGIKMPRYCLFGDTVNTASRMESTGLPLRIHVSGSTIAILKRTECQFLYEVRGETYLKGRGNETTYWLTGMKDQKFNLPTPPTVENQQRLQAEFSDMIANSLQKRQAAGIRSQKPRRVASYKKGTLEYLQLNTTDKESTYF

B1: 5F9-hIgG1 (antibody, V domains shown)
VH: QVQLQQWGAGLLKPSETLSLTCAVFGGSFSGYYWSWIRQPPGKGLEWIGEINHRGNTNDNPSLKSRVTISVDTSKNQFALKLSSVTAADTAVYYCARERGYTYGNFDHWGQGTLVTVSS
VL: EIVMTQSPATLSVSPGERATLSCRASQSVSRNLAWYQQKPGQAPRLLIYGASTRATGIPARFSGSGSGTEFTLTIGSLQSEDFAVYYCQQYKTWPRTFGQGTNVEIKR
notes: also called positive control antibody
**Q.** How did the “EC50 (read off the curve)” value [1] turn out when B1 was run?
**A.** ~0.3 nM

**Q.** And the “EC50 (read off the curve)” value [2]?
**A.** ~1 nM

**Q.** What about the “EC50 (read off the curve)” value [3] of the same binder?
**A.** ~0.3 nM

Source: US20250075006A1 (SHANDONG SIMCERE BIOPHARMACEUTICAL, published 2025)
